Assays:
[1] = molecular target: VEGF-165, VEGFC and VEGFD mixture; experiment: cell-based or functional assay
[2] = molecular target: recombinant human VEGF165 protein (human) (UniProt P15692); experiment: cell-based or functional assay

Sequence of EYLEA (Fc fusion) (chain): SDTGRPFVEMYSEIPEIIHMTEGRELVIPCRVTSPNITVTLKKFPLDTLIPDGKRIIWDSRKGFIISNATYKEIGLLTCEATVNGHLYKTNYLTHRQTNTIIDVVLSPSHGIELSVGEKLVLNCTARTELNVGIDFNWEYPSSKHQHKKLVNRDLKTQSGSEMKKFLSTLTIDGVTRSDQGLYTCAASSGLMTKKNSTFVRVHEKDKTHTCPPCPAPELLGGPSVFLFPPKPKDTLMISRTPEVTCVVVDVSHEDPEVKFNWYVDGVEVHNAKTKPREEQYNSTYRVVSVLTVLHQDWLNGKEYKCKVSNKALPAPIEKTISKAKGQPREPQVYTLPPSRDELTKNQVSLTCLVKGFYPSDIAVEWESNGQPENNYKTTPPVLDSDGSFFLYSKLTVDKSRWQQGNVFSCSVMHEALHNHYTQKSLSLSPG

Substance | EC50(nM), neutralizing VEGF165, VEGFC and VEGFD mixture, HUVEC proliferation [1] | Maximum neutralization rate Emax (%), VEGF165, VEGFC and VEGFD mixture, HUVEC proliferation [1] | EC50(nM), neutralizing VEGF165 at 10 ng/mL, HUVEC proliferation [2] | EC50(nM), neutralizing VEGF165 at 100 ng/mL, HUVEC proliferation [2] | EC50(nM), neutralizing VEGF165 at 1000 ng/mL, HUVEC proliferation [2] | maximum neutralization rate (%), VEGF165 at 10 ng/mL, HUVEC proliferation [2] | maximum neutralization rate (%), VEGF165 at 100 ng/mL, HUVEC proliferation [2] | maximum neutralization rate (%), VEGF165 at 1000 ng/mL, HUVEC proliferation [2]
Avastin (bevacizumab) (antibody) | 0.77 nM | 58.5% |  |  |  |  |  | 
EYLEA (Fc fusion) |  |  | 0.16 nM | 2.9 nM | 40.2 nM | 101% | 98.7% | 80.2%

Source: patent US20220144930A1
